This is an account of results in patent US20060035329A1 (CARNEGIE INSTITUTION OF WASHINGTON, published 2006).

Experiment [1] addresses LexA-hr (hr amino acids 575-1215 fused to the lexA DNA binding domain) (rat). Kind of experiment: yeast two-hybrid, β-galactosidase activity with TRIAC (10^-6 M) against without hormone.
Experiment [2] deals with TR (thyroid hormone receptor co-expressed with hr in the reporter assay). Kind of experiment: cell-based or functional assay.
Experiment [3] concerns the target T1, hr fusion protein (hr amino acids 575-1215 fused to either GST or TrpE; which one is not said) (rat, UniProt P97609 549-1181).
T1 construct: also called the hr fusion protein; not shown: fusion partner is GST or TrpE
T1 sequence: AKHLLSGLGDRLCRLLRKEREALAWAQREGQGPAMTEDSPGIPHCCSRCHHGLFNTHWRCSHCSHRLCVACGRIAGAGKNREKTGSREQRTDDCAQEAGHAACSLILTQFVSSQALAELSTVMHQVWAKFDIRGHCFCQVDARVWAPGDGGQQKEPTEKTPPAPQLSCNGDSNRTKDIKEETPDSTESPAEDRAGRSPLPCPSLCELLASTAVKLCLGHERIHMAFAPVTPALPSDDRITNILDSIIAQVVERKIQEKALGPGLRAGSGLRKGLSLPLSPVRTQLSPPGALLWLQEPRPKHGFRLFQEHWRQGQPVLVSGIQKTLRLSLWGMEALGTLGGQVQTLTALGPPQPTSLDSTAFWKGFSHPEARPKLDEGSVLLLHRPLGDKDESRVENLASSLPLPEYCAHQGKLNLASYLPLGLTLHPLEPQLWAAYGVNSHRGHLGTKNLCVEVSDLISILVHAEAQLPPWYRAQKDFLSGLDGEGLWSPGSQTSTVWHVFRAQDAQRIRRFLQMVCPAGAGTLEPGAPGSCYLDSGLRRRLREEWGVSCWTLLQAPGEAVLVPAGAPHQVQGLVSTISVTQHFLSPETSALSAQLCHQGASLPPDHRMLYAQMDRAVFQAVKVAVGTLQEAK
Kind of experiment: far western, 35S-labeled probe on immobilized hr fusion protein.

In experiment [1], “TRα1 (as tested in the two-hybrid assay) (receptor)” displayed a fold reduction of interaction by hormone of 2 fold.
With “hr (hairless gene product expressed from an expression construct containing the hr gene) (from UniProt P97609 1-1181)”, in experiment [2], the thyroid hormone induced transcription (TRE-containing reporter) was found to be 2 fold.

B1: 35S-RAR (retinoic acid receptor, from pCMX hRARα) (receptor, human, UniProt P10276 1-462, looked up)
chain: MASNSSSCPTPGGGHLNGYPVPPYAFFFPPMLGGLSPPGALTTLQHQLPVSGYSTPSPATIETQSSSSEEIVPSPPSPPPLPRIYKPCFVCQDKSSGYHYGVSACEGCKGFFRRSIQKNMVYTCHRDKNCIINKVTRNRCQYCRLQKCFEVGMSKESVRNDRNKKKKEVPKPECSESYTLTPEVGELIEKVRKAHQETFPALCQLGKYTTNNSSEQRVSLDIDLWDKFSELSTKCIIKTVEFAKQLPGFTTLTIADQITLLKAACLDILILRICTRYTPEQDTMTFSDGLTLNRTQMHNAGFGPLTDLVFAFANQLLPLEMDDAETGLLSAICLICGDRQDLEQPDRVDMLQEPLLEALKVYVRKRRPSRPHMFPKMLMKITDLRSISAKGAERVITLKMEIPGSMPPLIQEMLENSEGLDTLSGQPGGGGRDGGGLAPPPGSCSPSLSPSSNRSSPATHSP
modifications: 35S-methionine label
With B1, in experiment [3], the binding result was “no binding”.

B2: 35S-RXR (retinoid X receptor, from pCMX hRXRα) (receptor, human, UniProt P19793 1-462, looked up)
chain: MDTKHFLPLDFSTQVNSSLTSPTGRGSMAAPSLHPSLGPGIGSPGQLHSPISTLSSPINGMGPPFSVISSPMGPHSMSVPTTPTLGFSTGSPQLSSPMNPVSSSEDIKPPLGLNGVLKVPAHPSGNMASFTKHICAICGDRSSGKHYGVYSCEGCKGFFKRTVRKDLTYTCRDNKDCLIDKRQRNRCQYCRYQKCLAMGMKREAVQEERQRGKDRNENEVESTSSANEDMPVERILEAELAVEPKTETYVEANMGLNPSSPNDPVTNICQAADKQLFTLVEWAKRIPHFSELPLDDQVILLRAGWNELLIASFSHRSIAVKDGILLATGLHVHRNSAHSAGVGAIFDRVLTELVSKMRDMQMDKTELGCLRAIVLFNPDSKGLSNPAEVEALREKVYASLEAYCKHKYPEQPGRFAKLLLRLPALRSIGLKCLEHLFFFKLIGDTPIDTFLMEMLEAPHQMT
modifications: 35S-methionine label
For B2, in experiment [3], the binding result is “no binding”.
